Assay [1] addresses T1, PrP^Sc, pathogenic form of the human prion protein (from CJD brain homogenate) (human), P04156.
The target of assay [2] is T1, PrP^Sc, pathogenic form of the human …. The source holds these as a separate data set.
The target is the same in assay [3]. This is another data set of the same source.
For assay [4] the target is unchanged. This is another data set of the same source.

Read-outs that look alike come from different tables or passages of the source.

B1: peptide of SEQ ID NO: 68 (peptide)
peptide: GGGKKRPKPGG
modifications: not checked
In the case of B1, in assay [1], the Exp. Mean (ELISA signal) stood at 853 RLU and the Exp. Mean (as % of 68) stood at 100%. In assay [2], this molecule gave an Exp. Mean (ELISA signal) of 418 RLU and an Exp. Mean (as % of 68) of 100%. In assay [3], this molecule showed a Mean (% of 68) of 100% and a Mean (ELISA signal) of 85 RLU. Moreover, the Mean (ELISA signal) in assay [4] was found to be 138 RLU.

These data come from patent publication US20120027677A1.
